In test [1] the target is S. venezuelae ParB (wild type, recombinant, cleaved from GST) (S. venezuelae). Particulars: scale: μmol of phosphate released by 1 μmol of ParB in one hour.
Test [2] addresses S. venezuelae ParB_(SMC-) variant (TDR 132-134 to AAT, D164R) (S. venezuelae). Particulars: scale: μmol of phosphate released by 1 μmol of ParB in one hour.

In the case of “FLAG-SMC of S. venezuelae (natural protein)”, the CTP hydrolysis (phosphate released) by ParB (2 μM) with parS-containing plasmid DNA and FLAG-SMC (0.02 μM, 1:100 molar ratio); without FLAG-SMC 65.1 +/− 2.9 in test [1] stood at 35.2. In test [2], the CTP hydrolysis (phosphate released) by ParB (SMC-) (2 μM) with parS-containing plasmid DNA and FLAG-SMC (1:100 molar ratio); without FLAG-SMC 46.7 +/− 3.9; said to be similar with and without SMC is 39.

The values above are taken from publication PMC12511625.
